# From US10350168B2, “Dermal delivery compositions comprising active agent-calcium phosphate particle complexes and methods of using the same” (Laboratory Skin Care, Inc., priority 2009, dated 2019)
# Test: Lactoferrin binding to calcium phosphate particles (UV 280 nm)
# Type: physicochemical
# Conditions: binding concentration of 2.99 mg/ml
# Procedure: • Calcium phosphate particles • Lactoferrin from human milk, Sigma Aldrich, Catalog No. 0520-100MG Methods: • i. Lactoferrin solution was prepared in water at 4.98 mg/ml. • ii. 0.3 g of Calcium phosphate particles was suspended in 1.2 ml of water and mixed for 5 min. • iii. 1.8 ml of Lactoferrin solution at 4.98 mg/ml was added to achieve the final concentrations at 3.0 mg/ml, and the final volume was 3 ml. • iv. The suspension was mixed for 30 min, and centrifuged at 5000×g for 10 min in a bench top centrifuge. • v. The absorbance of supernatant was measured at 280 nm (the detection wavelength for Lactoferrin) by UV spectrophotometer. • vi. […] Lactoferrin bound was calculated by subtracting the amount of the Lactoferrin detected in the supernatant from the total initial amount in the binding suspension.
molecule,measurement,value
"Lactoferrin: Lactoferrin from human milk, Sigma Aldrich (protein, UniProt P02788 20-710, looked up) Lactotransferrin: GRRRSVQWCAVSQPEATKCFQWQRNMRKVRGPPVSCIKRDSPIQCIQAIAENRADAVTLDGGFIYEAGLAPYKLRPVAAEVYGTERQPRTHYYAVAVVKKGGSFQLNELQGLKSCHTGLRRTAGWNVPIGTLRPFLNWTGPPEPIEAAVARFFSASCVPGADKGQFPNLCRLCAGTGENKCAFSSQEPYFSYSGAFKCLRDGAGDVAFIRESTVFEDLSDEAERDEYELLCPDNTRKPVDKFKDCHLARVPSHAVVARSVNGKEDAIWNLLRQAQEKFGKDKSPKFQLFGSPSGQKDLLFKDSAIGFSRVPPRIDSGLYLGSGYFTAIQNLRKSEEEVAARRARVVWCAVGEQELRKCNQWSGLSEGSVTCSSASTTEDCIALVLKGEADAMSLDGGYVYTAGKCGLVPVLAENYKSQQSSDPDPNCVDRPVEGYLAVAVVRRSDTSLTWNSVKGKKSCHTAVDRTAGWNIPMGLLFNQTGSCKFDEYFSQSCAPGSDPRSNLCALCIGDEQGENKCVPNSNERYYGYTGAFRCLAENAGDVAFVKDVTVLQNTDGNNNEAWAKDLKLADFALLCLDGKRKPVTEARSCHLAMAPNHAVVSRMDKVERLKQVLLHQQAKFGRNGSDCPDKFCLFQSETKNLLFNDNTECLARLHGKTTYEKYLGPQYVAGITNLKKCSTSPLLEACEFLRK",Lactoferrin bound to calcium phosphate particles,29.63 mg/g
